This is an account of results in paper PMC2920127 (Nature structural & molecular biology, 2010).

The target in this test is recombinant full-length His-tagged human PABPC1 (human, UniProt P11940 1-636). The experiment in a line: pull-down.
recombinant full-length His-tagged human PABPC1, sequence (P11940 whole entry): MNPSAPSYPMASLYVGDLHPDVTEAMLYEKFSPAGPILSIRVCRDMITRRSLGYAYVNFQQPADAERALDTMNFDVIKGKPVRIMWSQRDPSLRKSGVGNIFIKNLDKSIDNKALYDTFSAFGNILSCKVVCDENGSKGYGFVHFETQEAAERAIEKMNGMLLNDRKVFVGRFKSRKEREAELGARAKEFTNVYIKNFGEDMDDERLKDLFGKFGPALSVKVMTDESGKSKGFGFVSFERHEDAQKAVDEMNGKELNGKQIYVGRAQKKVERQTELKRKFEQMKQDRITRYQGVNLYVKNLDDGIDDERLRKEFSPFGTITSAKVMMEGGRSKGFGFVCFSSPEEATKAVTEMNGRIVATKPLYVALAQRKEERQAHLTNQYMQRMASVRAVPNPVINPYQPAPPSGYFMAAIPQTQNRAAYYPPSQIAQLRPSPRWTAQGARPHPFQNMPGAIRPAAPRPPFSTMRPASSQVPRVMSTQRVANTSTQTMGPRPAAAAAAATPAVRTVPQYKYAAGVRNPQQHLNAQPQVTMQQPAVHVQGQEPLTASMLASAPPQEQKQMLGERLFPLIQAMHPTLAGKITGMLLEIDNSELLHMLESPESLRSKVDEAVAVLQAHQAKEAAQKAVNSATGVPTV

B1: GST-fused TNRC6C fragment 1364-1601 (domain or fragment, human, UniProt Q9HCJ0-1 1364-1601, looked up)
chain: PHSWSRAKSDSDKISNGSSINWPPEFHPGVPWKGLQNIDPENDPDVTPGSVPTGPTINTTIQDVNRYLLKSGGKLSDIKSTWSSGPTSHTQASLSHELWKVPRNSTAPTRPPPGLTNPKPSSTWGASPLGWTSSYSSGSAWSTDTSGRTSSWLVLRNLTPQIDGSTLRTLCLQHGPLITFHLNLTQGNAVVRYSSKEEAAKAQKSLHMCVLGNTTILAEFAGEEEVNRFLAQGQALPP
As for B1, the binding result is “binds”.

B2: GST-fused TNRC6C fragment 1242-1601 (domain or fragment, human, UniProt Q9HCJ0-1 1242-1601, looked up)
chain: PQTPGLPDLQTKEQQSSPNTFAPYPLAGLNPNMNVNSMDMTGGLSVKDPSQSQSRLPQWTHPNSMDNLPSAASPLEQNPSKHGAIPGGLSIGPPGKSSIDDSYGRYDLIQNSESPASPPVAVPHSWSRAKSDSDKISNGSSINWPPEFHPGVPWKGLQNIDPENDPDVTPGSVPTGPTINTTIQDVNRYLLKSGGKLSDIKSTWSSGPTSHTQASLSHELWKVPRNSTAPTRPPPGLTNPKPSSTWGASPLGWTSSYSSGSAWSTDTSGRTSSWLVLRNLTPQIDGSTLRTLCLQHGPLITFHLNLTQGNAVVRYSSKEEAAKAQKSLHMCVLGNTTILAEFAGEEEVNRFLAQGQALPP
Regarding B2, the binding result is “binds”.
